This is an account of results in patent US20240417437A1 (TRUTINO BIOSCIENCES, published 2024).

Assay [1] has as its target T1, collagen cross-linked to agarose (Sigma).
T1 construct: also called collagen-agarose; collagen-agarose beads
Description: pulldown with collagen-agarose, immunoblot quantified with iBright imaging system; reference Construct B. As to the method: To test binding to collagen, a pulldown assay using agarose cross-linked to collagen (Sigma) was performed. IL-2 fusion proteins were incubated with collagen-agarose or control agarose beads for 18-22 hours at 4° C. with gentle rotation in 1% BSA/PBS-0.05% Tween 20. After washing, proteins bound to the beads were eluted by resuspending beads in SDS sample buffer (Life Technologies). […] Donkey anti-goat HRP-conjugated antibody was used for detection (Jackson Immuno Research, West Grove, PA), and the blot was developed using the SuperSignal West Femto Maximum sensitivity detection reagent (ThermoFisher) following the manufacturer's recommendations. Construct GG and Construct II were specifically bound by collagen-agarose beads, while no IL-2 fusion protein bound the control agarose beads.
In general terms: A western blot detects proteins with antibodies after separation by electrophoresis.

Assay [2] has as its target fibronectin (Sigma), coated on 96-well plates. Description: plate ELISA on coated fibronectin at pH 6, OD 450-650nm. The EC50 is printed in the plot area beside the top curve (Construct EE - pH 6), the only strongly rising curve. As to the method: A similar plate-based assay was developed to interrogate binding of IL-2 fusion variants to fibronectin. 96-well plates were coated with fibronectin (4-10 μg/mL, Sigma) or control BSA for 18-22 hours at room temperature on shaker (350 rpm). After washing, wells were blocked with 2% milk powder in PBS-0.05% Tween 20 or protein-free blocking buffer (Pierce) for 90 min, then fusion proteins were titrated in blocking buffer-0.1% Tween 20, pH 7.5 and/or pH 6, and added for 1 hour at room temperature with shaking. After washing, an anti-mouse IL-2 biotin-labelled detection antibody (JES6-5H4, ThermoFisher) or anti-human IgG HRP conjugate antibody (SouthernBiotech) was added, and binding was detected using Ultra Streptavidin HRP (ThermoFisher). The plate was developed by adding the chromogenic tetramethylbenzidine substrate (Ultra TMB, ThermoFisher). The reaction was stopped by addition of 0.5 M H₂SO₄, and the absorbance was read at 450-650 nm.
On the technique in general: An ELISA detects its analyte on a solid surface through an enzyme-linked reagent.

Chain of fibronectin (Sigma), coated on 96-well plates (P02751 32-2477): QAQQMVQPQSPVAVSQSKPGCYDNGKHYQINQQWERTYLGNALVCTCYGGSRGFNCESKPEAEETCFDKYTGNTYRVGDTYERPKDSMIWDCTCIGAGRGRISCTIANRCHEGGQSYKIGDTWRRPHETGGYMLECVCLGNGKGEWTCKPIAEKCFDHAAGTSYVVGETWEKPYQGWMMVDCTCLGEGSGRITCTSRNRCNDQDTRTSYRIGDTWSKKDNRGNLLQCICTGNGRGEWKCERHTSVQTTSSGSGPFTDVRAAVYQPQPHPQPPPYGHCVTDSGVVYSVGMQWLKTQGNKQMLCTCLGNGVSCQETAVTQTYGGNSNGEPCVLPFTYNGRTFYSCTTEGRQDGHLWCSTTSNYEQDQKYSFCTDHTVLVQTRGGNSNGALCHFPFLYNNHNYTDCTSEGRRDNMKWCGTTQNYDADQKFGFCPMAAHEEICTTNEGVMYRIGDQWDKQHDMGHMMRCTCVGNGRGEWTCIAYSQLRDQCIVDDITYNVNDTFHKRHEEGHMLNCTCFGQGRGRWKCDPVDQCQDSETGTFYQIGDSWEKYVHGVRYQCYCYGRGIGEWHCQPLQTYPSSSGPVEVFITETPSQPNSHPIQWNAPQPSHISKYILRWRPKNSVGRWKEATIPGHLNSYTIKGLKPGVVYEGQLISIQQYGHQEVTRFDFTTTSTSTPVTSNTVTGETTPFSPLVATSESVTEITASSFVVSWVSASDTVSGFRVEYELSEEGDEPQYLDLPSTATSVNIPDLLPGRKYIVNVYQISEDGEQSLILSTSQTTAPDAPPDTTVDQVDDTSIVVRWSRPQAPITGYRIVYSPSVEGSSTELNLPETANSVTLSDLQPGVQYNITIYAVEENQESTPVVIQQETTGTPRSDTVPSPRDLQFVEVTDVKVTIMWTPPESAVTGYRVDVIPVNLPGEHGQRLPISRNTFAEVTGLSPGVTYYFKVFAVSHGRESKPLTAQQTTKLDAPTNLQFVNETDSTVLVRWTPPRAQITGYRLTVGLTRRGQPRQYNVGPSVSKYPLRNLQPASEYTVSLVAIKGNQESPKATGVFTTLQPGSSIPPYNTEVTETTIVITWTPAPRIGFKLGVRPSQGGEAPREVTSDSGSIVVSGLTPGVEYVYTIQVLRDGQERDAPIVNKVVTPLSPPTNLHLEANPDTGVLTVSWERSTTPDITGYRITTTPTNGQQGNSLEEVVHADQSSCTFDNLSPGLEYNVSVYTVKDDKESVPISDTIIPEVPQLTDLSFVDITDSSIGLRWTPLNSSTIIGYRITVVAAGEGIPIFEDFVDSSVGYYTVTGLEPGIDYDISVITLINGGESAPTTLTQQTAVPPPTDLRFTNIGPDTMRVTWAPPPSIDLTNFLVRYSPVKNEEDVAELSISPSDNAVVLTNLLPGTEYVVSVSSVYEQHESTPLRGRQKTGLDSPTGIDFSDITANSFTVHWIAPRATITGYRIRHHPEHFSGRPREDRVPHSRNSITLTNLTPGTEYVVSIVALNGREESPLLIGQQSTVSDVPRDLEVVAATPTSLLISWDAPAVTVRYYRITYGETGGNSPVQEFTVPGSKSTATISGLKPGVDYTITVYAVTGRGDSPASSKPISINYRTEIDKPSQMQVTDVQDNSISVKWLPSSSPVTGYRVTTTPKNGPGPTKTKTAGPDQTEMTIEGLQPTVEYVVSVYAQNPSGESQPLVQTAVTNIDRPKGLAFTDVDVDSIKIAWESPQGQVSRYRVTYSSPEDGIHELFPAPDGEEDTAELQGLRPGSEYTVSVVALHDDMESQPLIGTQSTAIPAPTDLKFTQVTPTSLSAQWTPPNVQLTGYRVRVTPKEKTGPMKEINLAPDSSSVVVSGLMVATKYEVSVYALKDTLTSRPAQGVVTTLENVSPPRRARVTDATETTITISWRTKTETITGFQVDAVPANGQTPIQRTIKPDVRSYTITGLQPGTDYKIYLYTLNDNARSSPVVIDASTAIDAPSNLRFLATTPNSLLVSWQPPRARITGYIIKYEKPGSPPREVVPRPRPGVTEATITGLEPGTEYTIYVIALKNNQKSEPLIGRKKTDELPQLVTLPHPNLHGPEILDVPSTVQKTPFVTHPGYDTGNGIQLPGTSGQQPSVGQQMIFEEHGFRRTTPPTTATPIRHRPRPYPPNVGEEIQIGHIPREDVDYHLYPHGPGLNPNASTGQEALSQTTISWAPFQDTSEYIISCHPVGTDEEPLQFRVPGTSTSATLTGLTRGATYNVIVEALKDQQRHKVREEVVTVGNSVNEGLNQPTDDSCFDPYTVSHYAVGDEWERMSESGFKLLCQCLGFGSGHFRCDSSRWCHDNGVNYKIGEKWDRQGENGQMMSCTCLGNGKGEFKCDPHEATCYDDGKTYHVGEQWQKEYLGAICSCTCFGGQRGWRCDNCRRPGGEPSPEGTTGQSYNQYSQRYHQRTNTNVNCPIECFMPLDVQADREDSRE

B1: Construct II (collagen I): mIL2-LHERHLNNN(SEQ ID NO: 665)-MMPcs1-2x(G4S)-mIL2Ra(1-215)-muIgG1Fc (Fc fusion)
chain: APTSSSTSSSTAEAQQQQQQQQQQQQHLEQLLMDLQELLSRMENYRNLKLPRMLTFKFYLPKQATELKDLQCLEDELGPLRHVLDLTQSKSFQLEDAENFISNIRVTVVKLKGSDNTFECQFDDESATVVDFLRRWIAFCQSIISTSPQSLHERHLNNNGPLGVRGGGGGSGGGGSELCLYDPPEVPNATFKALSYKNGTILNCECKRGFRRLKELVYMRCLGNSWSSNCQCTSNSHDKSRKQVTAQLEHQKEQQTTTDMQKPTQSMHQENLTGHCREPPPWKHEDSKRIYHFVEGQSVHYECIPGYKALQRGPAISICKMKCGKTGWTQPQLTCVDEREHHRFLASEESQGSRNSSPESETSCPITTTDFPQPTETTAMTETFVLTMEYKGCKPCICTVPEVSSVFIFPPKPKDVLTITLTPKVTCVVVDISKDDPEVQFSWFVDDVEVHTAQTQPREEQFNSTFRSVSELPIMHQDWLNGKEFKCRVNSAAFPAPIEKTISKTKGRPKAPQVYTIPPPKEQMAKDKVSLTCMITDFFPEDITVEWQWNGQPAENYKNTQPIMDTDGSYFVYSKLNVQKSNWEAGNTFTCSVLHEGLHNHHTEKSLSHSPGK
Consider B1, for which the “fold of bound fraction over Construct B” value in assay [1] came out at 1.4 fold.

B2: Construct EE (pH fibronectin): mIL2-SGG-GGWSHW(SEQ ID NO: 653)-MMPcs1-2x(G4S)-mIL2Ra(1-215)-muIgG1Fc (Fc fusion)
chain: APTSSSTSSSTAEAQQQQQQQQQQQQHLEQLLMDLQELLSRMENYRNLKLPRMLTFKFYLPKQATELKDLQCLEDELGPLRHVLDLTQSKSFQLEDAENFISNIRVTVVKLKGSDNTFECQFDDESATVVDFLRRWIAFCQSIISTSPQSGGGGWSHWGPLGVRGGGGGSGGGGSELCLYDPPEVPNATFKALSYKNGTILNCECKRGFRRLKELVYMRCLGNSWSSNCQCTSNSHDKSRKQVTAQLEHQKEQQTTTDMQKPTQSMHQENLTGHCREPPPWKHEDSKRIYHFVEGQSVHYECIPGYKALQRGPAISICKMKCGKTGWTQPQLTCVDEREHHRFLASEESQGSRNSSPESETSCPITTTDFPQPTETTAMTETFVLTMEYKGCKPCICTVPEVSSVFIFPPKPKDVLTITLTPKVTCVVVDISKDDPEVQFSWFVDDVEVHTAQTQPREEQFNSTFRSVSELPIMHQDWLNGKEFKCRVNSAAFPAPIEKTISKTKGRPKAPQVYTIPPPKEQMAKDKVSLTCMITDFFPEDITVEWQWNGQPAENYKNTQPIMDTDGSYFVYSKLNVQKSNWEAGNTFTCSVLHEGLHNHHTEKSLSHSPGK
notes: Single-chain mouse IL-2 / IL-2Ralpha / mouse IgG1 Fc fusion
In assay [2], B2 came in with a concentration for a half-maximal effect (EC50) of 1820 nM.

Broadly, the EC50 is the concentration that produces a half-maximal response. Low readings indicate greater potency, high ones weaker potency.
